Four molecules from publication PMC6880778 can be followed below.

Test [1] addresses ecto-PfGAMA (N25-G715) (P. falciparum). Nature of the test: SPR; Biacore X100, CM5 chip; PfGAMA as ligand, analyte in single-cycle kinetics at 0.16, 0.8, 4, 20 and 100 nM; global fit to a 1:1 binding model. Background: In SPR one partner is held on a chip, and binding of the other changes the refractive index at the surface.
The target of test [2] is recombinant ecto-PfGAMA (N25-G715) (P. falciparum). The test can be described thus: SPR; Biacore X100, CM5 chip; recombinant PfGAMA as ligand, PfMSP10 protein as analyte; single-cycle kinetics at 0.16, 0.8, 4, 20 and 100 nM; global fitting in a 1:1 binding model.
The target is the same in test [3].

Broadly, the Kd is the constant that tells how readily two partners part at equilibrium. The koff is the first-order rate constant of dissociation. One may read the kon as a measure of how fast the partners come together. Low values mean slow association, high ones fast association.

For the molecule “PfMSP10 R1 (D29-N188) (domain or fragment)”, in test [1], the Kd was 648 nM, the koff was 0.000355 s⁻¹ and the kon stood at 548 M⁻¹ s⁻¹.

In test [1], “ecto-PfMSP10 (D29-Q507) (domain or fragment)” displayed a Kd of 99.7 nM, a koff of 0.0015 s⁻¹ and a kon of 15000 M⁻¹ s⁻¹.

B1: recombinant ecto-PfMSP10 (D29-Q507) (domain or fragment)
chain: DDIKNTSQKKITYDKYNKNKENMNNEKNDNKDNKDNIYNDNINNDNINNDNINNEDEYKFLSMKHYKDSLSNKLNNENDHMNYLIRKRKDNTQGSQHFNENIENNENVENNENIENNENNENIENIENNENNENNENIENNENNENNENSSIMNSESYNNIINSNEHNEEQIKKKEEDLIEAFFPFILKKLDNESLSLDNKYDDYYNLPNDHNDTHKENSSDHNLLGYKLGNNLKSYLIEENDVSQKKTDDINESASSDSENIQEILSTDSNTSHLKERKNQKAPPGEHKPEVKNALLNSQVASPKGEDEKKSQPQHPLVNSGDQLQHPKEIDENAEKIRRTLLKESRDIKNTTAIIDETVYKFEQLIMKGRYYATAVRNFVIFKVNYICEYSKCGPNSRCYIVEKDKEQCRCRPNYIVDMSVNYFKCIPMKDMNCSKNNGGCDVNAECTIVEGAVKCQCSHLYFGDGVFCVKNSQTKQ
In the case of B1, the Kd in test [2] worked out at 100 nM.

B2: PfMSP10 region 1 (R1, D29-N188) (domain or fragment)
chain: DDIKNTSQKKITYDKYNKNKENMNNEKNDNKDNKDNIYNDNINNDNINNDNINNEDEYKFLSMKHYKDSLSNKLNNENDHMNYLIRKRKDNTQGSQHFNENIENNENVENNENIENNENNENIENIENNENNENNENIENNENNENNENSSIMNSESYNN
Take B2: the GIA activity (growth inhibition of cultured P. falciparum parasites) of 20 mg/ml rabbit antibodies raised against PfMSP10 R1 in test [3] came out at 11%. The Kd in test [2] was determined as 650 nM.
